Data as given in the supplement of paper PMC6757056.
± gives the standard deviation of the averaged measurements.

B1: library; a variant is named by its letters at N, in order (parent)
chain: GCUGUCACCGGUGUAUUACCCUAGUGGUCGACCGGUCUGAUGAGUCUNNNNNNAGACGAAACAGC

What was measured:
hypoxanthine [1] = variants of: B1; assay: normalized RNA/DNA level with ligand (relative to sTRSVctl = 100) (log10 (% of sTRSVctl)); ligand: hypoxanthine (xanthine aptamer); higher = less ribozyme self-cleavage, higher mRNA level; conditions: ligand concentration (+) RNA-Seq: 5 mM, HEK293T, reporter: mCherry (pCS4076), ligand present: yes
Method in brief: (§1)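 HEK293T cells received ligand, where used, 1 h before being transfected with 4 µg per 6-well well of library plasmids encoding reporter-linked ribozyme switches. After 72 h, RNA was extracted with EDTA and sequenced. RNA level was derived from RNA reads per DNA read, normalized to a spiked-in non-cleaving sequence or the top sequences, then scaled and log-transformed. Values were ×100 then log10, the top set was 25 sequences, and the minimum was 100 DNA reads.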

hypoxanthine [2] = variants of: B1; assay: normalized RNA/DNA level without ligand (relative to sTRSVctl = 100) (log10 (% of sTRSVctl)); ligand: hypoxanthine (xanthine aptamer); higher = less ribozyme self-cleavage, higher mRNA level; conditions: HEK293T, reporter: mCherry (pCS4076), ligand present: no
Method in brief: as §1

Variant	normalized RNA/DNA level with ligand (log10) (hypoxanthine [1])	normalized RNA/DNA level without ligand (log10) (hypoxanthine [2])
GUCAAU	1.925 ± 0.015	1.8 ± 0.054
GUCAAC	1.95 ± 0.02	1.748 ± 0.0031
CUCGAG	1.9019 ± 0.00066	1.6 ± 0.031
CUCGAC	1.96 ± 0.023	1.808 ± 0.017
UUCCGU	2 ± 0.039	1.85 ± 0.025
UUCCGG	1.98 ± 0.024	1.903 ± 0.011
UUCCGC	2.011 ± 0.003	1.89 ± 0.035
UUCCGA	1.97 ± 0.029	1.94 ± 0.03
GUCGAU	1.93 ± 0.07	1.76 ± 0.039
AUAUUA	1.868 ± 0.0053	1.82 ± 0.028
AUAUUU	1.903 ± 0.0024	1.89 ± 0.057
AUCCAC	1.95 ± 0.056	1.8068 ± 0.00014
CUCAAG	1.88 ± 0.0045	1.742 ± 0.0067
CUCAAU	1.92 ± 0.036	1.792 ± 0.0044
CUCAAC	1.98 ± 0.052	1.926 ± 0.0052
CUCAAA	1.919 ± 0.0021	1.785 ± 0.013
UUGACC	1.96 ± 0.049	1.987 ± 0.011
UUGACU	1.95 ± 0.077	1.9 ± 0.042
AUCCUU	1.98 ± 0.027	1.91 ± 0.055
AUCCUA	1.94 ± 0.062	1.9 ± 0.043
UUCAGU	1.947 ± 0.013	1.83 ± 0.036
UUCAGG	1.92 ± 0.025	1.79 ± 0.053
UUCAGC	1.94 ± 0.026	1.93 ± 0.02

Variant	normalized RNA/DNA level with ligand (log10) (hypoxanthine [1])	normalized RNA/DNA level without ligand (log10) (hypoxanthine [2])
UUCAGA	1.96 ± 0.037	1.823 ± 0.0059
AUCACU	1.98 ± 0.024	1.884 ± 0.0058
AUCACA	1.908 ± 0.0044	1.84 ± 0.023
AUCACG	1.933 ± 0.0027	1.554 ± 0.015
AUCACC	1.98 ± 0.029	1.953 ± 0.011
CUCGCC	1.99 ± 0.026	1.883 ± 0.0029
CUCGCG	1.983 ± 0.0024	1.9 ± 0.084
CUCGCU	1.95 ± 0.043	1.924 ± 0.014
CUCGCA	1.94 ± 0.062	1.847 ± 0.002
UUCGUU	1.94 ± 0.11	1.84 ± 0.054
UUCGUC	2.0298 ± 0.00024	2.03 ± 0.041
UUCGUG	1.964 ± 0.019	1.7 ± 0.041
GUCCGA	1.9508 ± 0.00054	1.732 ± 0.013
GUCCGU	1.891 ± 0.0098	1.86 ± 0.041
GUCCGC	1.9 ± 0.055	1.85 ± 0.024
GUCUCA	1.965 ± 0.019	1.943 ± 0.0073
GUCUCC	1.99 ± 0.047	1.94 ± 0.084
GUCGGU	1.91 ± 0.051	1.83 ± 0.035
GUAUUU	1.94 ± 0.079	1.859 ± 0.018
GUAUUA	1.92 ± 0.03	1.842 ± 0.017
GUAUUC	1.95 ± 0.073	1.931 ± 0.013
AUAUGC	1.94 ± 0.0047	1.76 ± 0.018
UUCUGC	1.998 ± 0.019	1.92 ± 0.049

Variant	normalized RNA/DNA level with ligand (log10) (hypoxanthine [1])	normalized RNA/DNA level without ligand (log10) (hypoxanthine [2])
UUCUGU	1.947 ± 0.0095	1.883 ± 0.018
UUCUGA	2.03 ± 0.036	1.834 ± 0.0034
CUGACU	1.99 ± 0.038	1.9 ± 0.072
CUGACG	1.89 ± 0.057	1.86 ± 0.074
CUGAUG	1.936 ± 0.0068	1.646 ± 0.0062
CUGAUU	1.94 ± 0.096	1.87 ± 0.031
CUGAUC	1.98 ± 0.035	1.949 ± 0.019
UUCUUA	1.95 ± 0.014	1.883 ± 0.018
UUCUUC	2.01 ± 0.062	2.06 ± 0.039
UUCUUU	1.927 ± 0.013	1.98 ± 0.034
UUCUUG	1.92 ± 0.068	1.794 ± 0.016
GUCACG	1.9 ± 0.025	1.54 ± 0.055
GUCACC	1.92 ± 0.059	1.9 ± 0.079
GUCACA	1.917 ± 0.002	1.81 ± 0.022
GUCACU	1.977 ± 0.014	1.91 ± 0.041
CUCGGA	1.99 ± 0.03	1.84 ± 0.057
GUGAUU	1.92 ± 0.0091	1.847 ± 0.0028
GUGAUC	1.93 ± 0.036	1.54 ± 0.13
GUGAUA	1.89 ± 0.073	1.75 ± 0.027
CUCACG	1.93 ± 0.024	1.913 ± 0.0027
CUCACA	1.911 ± 0.016	1.83 ± 0.021
UUCGAC	1.9 ± 0.074	1.781 ± 0.0058
UUCGAG	1.88 ± 0.038	1.544 ± 0.0067

Variant	normalized RNA/DNA level with ligand (log10) (hypoxanthine [1])	normalized RNA/DNA level without ligand (log10) (hypoxanthine [2])
CUCAUG	1.96 ± 0.042	1.91 ± 0.024
CUCAUU	1.99 ± 0.067	2.01 ± 0.08
CUAUUU	2 ± 0.021	1.93 ± 0.053
AUCCCA	1.92 ± 0.03	1.88 ± 0.02
AUCCCU	1.97 ± 0.042	1.9 ± 0.022
AUCCCC	1.93 ± 0.025	1.87 ± 0.036
AUCGUA	1.898 ± 0.017	1.74 ± 0.024
AUCGUU	1.98 ± 0.08	1.87 ± 0.043
AUCGUC	2.03 ± 0.048	1.977 ± 0.0058
AUCGUG	1.82 ± 0.047	1.4 ± 0.076
AUCAUG	1.89 ± 0.021	1.63 ± 0.062
CUCUGA	1.96 ± 0.047	1.944 ± 0.009
CUCUGU	1.963 ± 0.0084	1.94 ± 0.028
CUCUGG	1.937 ± 0.0091	1.75 ± 0.084
CUGCAA	1.933 ± 0.0062	1.773 ± 0.015
CUGCAC	1.94 ± 0.057	1.869 ± 0.018
UUCCAA	1.92 ± 0.097	1.8417 ± 0.0007
UUCCAU	1.97 ± 0.074	1.882 ± 0.0027
UUCCAG	1.9 ± 0.051	1.68 ± 0.064
AUCGAA	1.863 ± 0.01	1.73 ± 0.04
GUCAUU	1.97 ± 0.056	1.916 ± 0.015
GUCAUA	1.957 ± 0.013	1.806 ± 0.013
GUGACC	1.931 ± 0.012	1.74 ± 0.019

Variant	normalized RNA/DNA level with ligand (log10) (hypoxanthine [1])	normalized RNA/DNA level without ligand (log10) (hypoxanthine [2])
GUGACA	1.9 ± 0.04	1.78 ± 0.033
UUCUAU	1.95 ± 0.047	1.867 ± 0.016
UUCUAG	1.936 ± 0.0068	1.67 ± 0.059
UUCUAC	1.87 ± 0.041	1.89 ± 0.085
AUCUAU	1.93 ± 0.032	1.83 ± 0.074
AUCUAG	1.91 ± 0.033	1.61 ± 0.019
AUCUAC	1.9 ± 0.12	1.855 ± 0.013
AUCCGU	1.96 ± 0.0099	1.91 ± 0.018
AUCCGG	1.954 ± 0.0038	1.7 ± 0.051
UUCAAC	1.94 ± 0.044	1.873 ± 0.011
GUCCAU	1.95 ± 0.028	1.852 ± 0.0035
AUGAUC	1.98 ± 0.039	1.93 ± 0.022
AUGAUU	1.92 ± 0.036	1.709 ± 0.003
GUCUUA	1.932 ± 0.0061	1.87 ± 0.021
GUCUUU	1.946 ± 0.003	1.885 ± 0.0085
GUCUUG	1.9 ± 0.086	1.52 ± 0.066
GUCUUC	1.99 ± 0.042	1.9928 ± 0.0007
AUAUCU	1.89 ± 0.026	1.844 ± 0.016
UUGCAA	1.92 ± 0.03	1.79 ± 0.048
AUCAGC	1.94 ± 0.024	1.95 ± 0.047
CUCGUA	1.91 ± 0.02	1.907 ± 0.015
CUCGUG	1.94 ± 0.028	1.81 ± 0.025
CUCGUU	1.94 ± 0.019	2.03 ± 0.063
